The text below walks through data of patent US20240026024A1 (SHANGHAI HUAOTA BIOPHARMACEUTICAL, published 2024).

Like-named read-outs stand apart in the source and are kept apart here.

In general, EC50 refers to the concentration giving half of the maximal effect. What is called Kd is the concentration at which binding is half-saturated. A lower Kd goes with tighter binding. The koff is a measure of how fast the partners let go of each other. A lower koff goes with slow dissociation. One may read the kon as the rate constant with which the complex forms.

The target in test [1] is T1, human CD73 on the cell surface (human, UniProt P21589 27-549).
T1 construct: also called CHOK1-huCD73-3F4 cells; human CD73-expressing cells
T1 sequence: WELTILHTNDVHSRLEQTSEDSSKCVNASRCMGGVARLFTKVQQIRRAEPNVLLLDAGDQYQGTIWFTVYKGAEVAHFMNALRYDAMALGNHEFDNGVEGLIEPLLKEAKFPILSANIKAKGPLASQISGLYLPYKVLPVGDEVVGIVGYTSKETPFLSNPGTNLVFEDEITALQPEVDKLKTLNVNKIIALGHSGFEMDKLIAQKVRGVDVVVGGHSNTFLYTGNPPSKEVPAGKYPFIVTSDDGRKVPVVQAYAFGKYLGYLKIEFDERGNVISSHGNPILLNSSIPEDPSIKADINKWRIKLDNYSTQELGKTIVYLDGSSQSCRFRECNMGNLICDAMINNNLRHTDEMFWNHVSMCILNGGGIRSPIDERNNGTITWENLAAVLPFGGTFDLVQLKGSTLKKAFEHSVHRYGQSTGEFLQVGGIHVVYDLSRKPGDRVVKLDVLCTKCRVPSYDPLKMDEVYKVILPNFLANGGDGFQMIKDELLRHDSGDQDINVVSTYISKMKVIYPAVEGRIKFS
The test can be described thus: flow cytometry on CHOK1-huCD73-3F4 cells, PE anti-human Fc. On the procedure: (§1) All the antigen-binding proteins were diluted to 30 μg/ml with PBS solution containing 1% BSA (1% BSA/PBS), diluted at 3-fold into 11 gradients and then added to a 96-well U-shaped plate at 20 μL/well, and negative control (1% BSA/PBS was added only) was set up simultaneously. The suspension of human CD73-expressing cells (CHOK1-huCD73-3F4, Huabo Biopharm) in the logarithmic growth phase were collected and centrifuged at 1000 rpm for 5 min, and the culture medium was discarded; then the cells were resuspended with 1% BSA/PBS to a viable cell density of 1×10⁶/mL, and then added into the 96-well U-shaped plate already added with anti-CD73 antigen-binding protein at 20 μL (2×10⁴ cells)/well for reaction at room temperature for 30 min. […] After the reaction, the cells in the 96-well U-shaped plate were resuspended with 1% BSA/PBS and centrifuged at 300 g for 3 min and the supernatant was discarded; after washing in this manner 3 times, and the cells were finally resuspended with 1% BSA/PBS at 100 μL/well, and the fluorescence intensity of the PE channel was measured with a flow cytometer (BD, #Canto II).

Test [2] deals with T1, human CD73 on the cell surface. The test can be described thus: cell-based or functional assay.
Test [3] addresses T2, human CD73 protein (ACRO Biosystems, Cat No. CD3-H52H7) (human, UniProt P21589 27-547).
T2 construct: Bought protein; also called recombinant CD73 protein; recombinant CD73
T2 sequence: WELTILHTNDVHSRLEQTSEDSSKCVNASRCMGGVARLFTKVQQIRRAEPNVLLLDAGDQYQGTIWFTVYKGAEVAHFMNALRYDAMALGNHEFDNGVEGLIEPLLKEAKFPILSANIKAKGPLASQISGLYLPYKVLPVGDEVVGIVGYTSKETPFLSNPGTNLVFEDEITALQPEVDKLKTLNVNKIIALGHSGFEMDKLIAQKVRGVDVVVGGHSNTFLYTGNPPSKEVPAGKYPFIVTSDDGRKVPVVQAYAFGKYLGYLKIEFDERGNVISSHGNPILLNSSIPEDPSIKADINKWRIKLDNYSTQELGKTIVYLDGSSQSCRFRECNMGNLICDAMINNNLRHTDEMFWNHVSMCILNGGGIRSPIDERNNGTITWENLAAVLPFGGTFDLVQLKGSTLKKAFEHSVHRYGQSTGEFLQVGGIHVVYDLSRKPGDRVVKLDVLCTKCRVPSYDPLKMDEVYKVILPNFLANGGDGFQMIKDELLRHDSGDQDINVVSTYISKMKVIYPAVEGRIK
The test is described as follows: SPR (Biacore T200), antibody captured on protein A chip, CD73 as analyte, 1:1 model. On the procedure: The temperatures of the sample chamber and flow path were set at 25° C. The protein A chips separately captured the antigen-binding proteins as ligands, which were immobilized at about 100 RU. […] Ten mM Glycine, pH 1.5, was regenerated for 60 s at a flow rate of 50 μL/min for multiple cycle kinetic detection. The binding rate constant (ka), dissociation rate constant (kd) and dissociation equilibrium rate constant (KD) were fitted using the Fit local mode of a 1:1 binding model.
(In general: In SPR one partner is held on a chip, and binding of the other changes the refractive index at the surface.)

Test [4] concerns the target T3, rat CD73 (Novoprotein, Cat No. CB16) (rat, UniProt P21588 29-551, limits assumed).
T3 construct: Bought protein
T3 sequence (looked up): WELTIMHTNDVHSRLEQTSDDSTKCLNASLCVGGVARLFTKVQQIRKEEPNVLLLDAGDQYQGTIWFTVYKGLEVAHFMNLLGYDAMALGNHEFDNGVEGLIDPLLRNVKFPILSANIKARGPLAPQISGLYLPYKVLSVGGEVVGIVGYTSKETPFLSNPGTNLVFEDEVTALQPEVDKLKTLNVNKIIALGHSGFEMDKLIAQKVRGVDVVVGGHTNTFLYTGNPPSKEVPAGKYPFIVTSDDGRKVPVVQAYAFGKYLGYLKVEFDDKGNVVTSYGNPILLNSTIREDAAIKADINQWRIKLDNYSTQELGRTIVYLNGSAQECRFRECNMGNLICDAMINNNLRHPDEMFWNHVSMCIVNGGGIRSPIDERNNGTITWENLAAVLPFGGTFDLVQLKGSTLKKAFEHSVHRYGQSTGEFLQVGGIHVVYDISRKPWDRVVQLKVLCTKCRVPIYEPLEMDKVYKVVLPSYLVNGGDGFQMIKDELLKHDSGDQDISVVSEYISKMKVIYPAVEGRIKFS
The test can be described thus: SPR (Biacore T200), antibody captured on protein A chip. On the procedure:
(§2) The temperatures of the sample chamber and flow path were set at 25° C. The protein A chips separately captured the antigen-binding proteins as ligands, which were immobilized at about 100 RU. […] Ten mM Glycine, pH 1.5, was regenerated for 60 s at a flow rate of […] for multiple cycle kinetic detection. The binding rate constant (ka), dissociation rate constant (kd) and dissociation equilibrium rate constant (KD) were fitted using the Fit local mode of a 1:1 binding model.

Test [5] has as its target T4, mouse CD73/NT5E (ACRO Biosystems, Cat No. CD3-M52H9) (mouse, UniProt Q61503 29-551).
T4 construct: Bought protein
T4 sequence (looked up): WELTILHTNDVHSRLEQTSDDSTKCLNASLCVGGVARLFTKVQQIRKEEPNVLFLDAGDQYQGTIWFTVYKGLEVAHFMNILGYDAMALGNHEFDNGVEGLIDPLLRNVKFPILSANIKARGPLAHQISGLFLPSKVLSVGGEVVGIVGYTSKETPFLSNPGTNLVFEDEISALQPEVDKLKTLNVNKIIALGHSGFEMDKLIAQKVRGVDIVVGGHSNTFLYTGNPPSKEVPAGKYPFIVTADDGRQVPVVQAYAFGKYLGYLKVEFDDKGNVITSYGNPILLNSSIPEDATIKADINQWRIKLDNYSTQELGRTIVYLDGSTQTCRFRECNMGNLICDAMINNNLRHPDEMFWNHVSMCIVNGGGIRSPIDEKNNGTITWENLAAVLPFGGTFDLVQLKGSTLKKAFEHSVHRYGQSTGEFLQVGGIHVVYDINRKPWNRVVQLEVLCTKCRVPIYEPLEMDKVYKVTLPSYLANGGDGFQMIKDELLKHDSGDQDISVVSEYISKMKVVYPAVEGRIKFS
Described as above. On the procedure:
as §2

Test [6] has as its target T1, human CD73 on the cell surface. The test is described as follows: flow cytometry on CHOK1-huCD73-3F4 cells, PE anti-human Fc. The method, then:
as §1
The source holds these as a separate data set. Background: In flow cytometry, cells or beads pass a laser one at a time.

For test [7], the target named is T2, human CD73 protein (ACRO Biosystems, …). The test is described as follows: cell-based or functional assay.
The target of test [8] is T1, human CD73 on the cell surface. The test can be described thus: cell-based or functional assay. This is another data set of the same source.

B1: 900565 (antibody, V domains shown)
VH: QAYLQQSGAELVRPGASVKMSCKASGYTFTSYNMHWVKQTPRQGLEWIGAIYPGNGDTSYNQKFKGKATLNVDKSSSTAYMQLSSLTSEDSAVYFCARWGYGSNYAWYFDIWGTGTTVTVSS
VL: DIQMTQSPASLSASVGETVTITCRTSGNIHNYLVWYQQKQGKSPQLLVFNAKTLADGVPSRFSGSGSGTQYSLKINSLQPEDFGSYYCQHFWSTPFTFGSGTKLEIK
notes: Chimeric antibody derived from hybridoma 115B10; it was detected with anti-human Fc
In turn, B1 gave an EC50 in test [1] of 2.14 µg/mL. The “EC50(µg/mL), inhibition of enzyme activity of CD73 on CHOK1-huCD73-3F4 cells” value in test [2] came out at 1.62 µg/mL.

B2: 900694 (antibody, V domains shown)
VH: EVQLVESGGGLVKPGGSLRLSCAASGFTFSKYAMSWVRQAPGKGLEWVAEISSGGGYINYPDTVTGRFTISRDNAKNSLYLQMNSLRAEDTAVYYCARAIYYYGSSYNYYAMDYWGQGTTVTVSS
VL: DIQMTQSPSSLSASVGDRVTITCRASQDVGTAEAWYQQKPGKAPKLLIYWASTRHTGVPDRFSGSGSGTDFTLTISSLQPEDFATYYCQQYSSYPLTFGQGTKLEIK
notes: Constant regions are not restated; it was detected with anti-human Fc and captured on protein A
In the case of B2, in test [3], the Kd turned out to be 1.5 nM, the koff was 0.000493 s⁻¹ and the kon turned out to be 329000 M⁻¹ s⁻¹. In test [4], the binding result is “no binding (tested: up to 50 nM analyte)”. In test [5], the binding result is recorded as “no binding (tested: up to 50 nM analyte)”. For the same molecule, the EC50 in test [6] worked out at 0.646 µg/mL. In test [7], the “EC50(µg/mL), inhibition of recombinant CD73 (CellTiter-Glo)” value is 0.681 µg/mL.

B3: 900222 (antibody, from another filing, V domains shown)
VH: QVQLVESGGGVVQPGRSLRLSCAASGFTFSNYGMHWVRQAPGKGLEWVAVILYDGSNKYYPDSVKGRFTISRDNSKNTLYLQMNSLRAEDTAVYYCARGGSSWYPDSFDIWGQGTMVTVSS
VL: DIQMTQSPSSLSASVGDRVTITCRASQGISSWLAWYQQKPEKAPKSLIYAASSLQSGVPSRFSGSGSGTDFTLTISSLQPEDFATYYCQQYNSYPLTFGGGTKVEIKR
In the case of B3, the Endocytosis efficiency (%) in test [8] turned out to be 44.2%.
